Laboratory results taken from PMC3072985.

Target: Mycobacterium tuberculosis Bacterioferritin B (BfrB), full length (Mycobacterium tuberculosis H37Rv) (UniProt P9WNE5)
Assay: crystal structure; recombinant BfrB, 11 mg/ml, 20% PEG 3350, 0.1 M Tris pH 8.5, 293 K; 3.0 Å; 24 subunits in the asymmetric unit

“Mycobacterium tuberculosis Bacterioferritin B (BfrB), full length (from UniProt P9WNE5 1-181) (natural protein)” was tested, and the stoichiometry N was 24.
